These results are taken from patent US20260098072A1, “METHODS OF STIMULATING APPETITE AND/OR INCREASING BODY WEIGHT USING NON-NATURALLY OCCURRING MELANOCORTIN RECEPTOR ANTAGONIST ANALOGS” (Endevica Bio, Inc., priority 2022, published 2026).

As a reminder, the IC50 is the concentration that gives 50% inhibition.

One experiment concerns the target T1, human MC3R (Homo sapiens, UniProt P41968).
T1 construct: expressed in transfected cells; host or cells: HEK293/CRE-luc/MC3R
Kind of experiment: cAMP accumulation assay (HTRF), antagonist activity at MC3R. As to conditions: for Hill Coefficient / Top (%): dose-response fit, MC3R; for Emax / IC50: HEK293/CRE-luc/MC3R; for Emax: 0.1 nM to 1,000 nM, read-out: Max Activation %; for IC50: estimated from dose-response curve. In kind it is cell-based. On the procedure:
(§1) The antagonist activity of exemplary non-naturally occurring melanocortin analogs (SEQ ID NOs: 3, 4, 6, 9-11, 14, 15, and 291-309) at the melanocortin 3 receptor (MC3R) and melanocortin 4 (MC4R) receptor was measured via cAMP accumulation assay, according to the following procedure.
(§2) Recombinant cell lines shown in Table 1 were stimulated with melanocortin receptor antagonists and evaluated for cyclic adenosine monophosphate (cAMP) levels as a measurement of receptor activation. cAMP levels were quantified using Homogeneous Time-Resolved Fluorescence (HTRF). The stimulation and CAMP measurement were performed sequentially. First, the compound stimulated the G-protein coupled receptor (GPCR) which then induced downstream signaling, which was measured soon after. Cell lines and stimulated receptors used are detailed in Table 1.
(§3) Twenty-seven exemplary synthetic peptides were tested for antagonist activity at the human MC3R and MC4R at concentrations ranging from 0.1 nM to 1,000 nM. After stimulation, the level of cyclic adenosine monophosphate (CAMP) in each well was quantified via Homogenous Time-Resolved Fluorescence (HTRF) as a measurement of receptor activity. Dose-response curves and estimated IC50 values were then obtained for each antagonist peptide against the MC3R and MC4R. HS024 (TFA) and was used as a positive control for the antagonist activity of MC3R (FIG. 1A) and MC4R (FIG. 1B).

In another experiment the target is T2, human MC4R (Homo sapiens, UniProt P32245).
T2 construct: expressed in transfected cells; host or cells: HEK293/MC4R/CRE-GFP
T2 sequence (P32245 whole entry): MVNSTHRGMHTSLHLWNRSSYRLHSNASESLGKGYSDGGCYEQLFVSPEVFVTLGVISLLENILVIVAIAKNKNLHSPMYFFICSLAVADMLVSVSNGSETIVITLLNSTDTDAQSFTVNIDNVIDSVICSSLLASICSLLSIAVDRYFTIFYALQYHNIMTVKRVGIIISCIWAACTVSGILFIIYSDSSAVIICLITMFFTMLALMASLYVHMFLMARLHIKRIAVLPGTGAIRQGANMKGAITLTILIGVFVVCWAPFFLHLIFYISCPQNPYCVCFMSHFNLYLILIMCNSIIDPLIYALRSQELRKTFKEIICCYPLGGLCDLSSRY
Kind of experiment: cAMP accumulation assay (HTRF), antagonist activity at MC4R. In kind it is cell-based. As to conditions: for Hill Coefficient / Top (%): dose-response fit, MC4R; for Emax: HEK293, HEK293/MC4R/CRE-GFP, 0.1 nM to 1,000 nM, read-out: Max Activation %. The procedure: as §1, §2, §3
A general note: Changes in cAMP serve as a functional read-out for many G protein-coupled receptors.

Where a name gives a salt, the structure may show the parent alone. Positions of bridges follow the written chain, without caps; N, C: chain ends. Non-standard residues stand in square brackets, D forms with d. Residues, ends and D or L forms follow the SMILES beside them. No end group written: not given here. d2Nal = N[C@H](Cc1ccc2ccccc2c1)C(=O)O; Hyp = O=C(O)[C@@H]1C[C@@H](O)CN1; Nle = CCCC[C@H](N)C(=O)O

T1 sequence (P41968 whole entry): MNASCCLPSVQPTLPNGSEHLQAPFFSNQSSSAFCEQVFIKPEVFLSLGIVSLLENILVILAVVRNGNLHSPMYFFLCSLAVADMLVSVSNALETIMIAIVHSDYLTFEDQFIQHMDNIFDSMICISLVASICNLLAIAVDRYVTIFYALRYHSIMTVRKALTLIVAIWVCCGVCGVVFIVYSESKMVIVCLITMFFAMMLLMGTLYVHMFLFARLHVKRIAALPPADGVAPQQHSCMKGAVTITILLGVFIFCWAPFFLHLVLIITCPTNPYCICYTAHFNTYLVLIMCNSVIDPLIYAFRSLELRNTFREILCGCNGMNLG

Turning to LPFFRWVP [Peptide B4], in the experiment with human MC3R, the “Hill Coefficient” value turned out to be 0.36 and the “Top (%)” value is 29.62%. Further, in the experiment with human MC4R, the “Hill Coefficient” value worked out at 1.90 and the “Top (%)” value worked out at 16.60%.

On to `CCCC[C@H](NC(C)=O)C(=O)N[C@H]1CC(=O)NCCCC[C@@H](C(=O)N[C@@H](C(=O)N2CCC[C@@H]2C(N)=O)C(C)C)NC(=O)[C@@H]2CCCN2C(=O)[C@H](Cc2c[nH]c3ccccc23)NC(=O)[C@H](CCCNC(=N)N)NC(=O)[C@@H](Cc2ccc3ccccc3c2)NC(=O)[C@@H]2C[C@@H](O)CN2C1=O` [Peptide D4, Ac-Nle-c(Asp-Hyp-Dnal(2′)-Arg-Trp-Pro-Lys)-Dval-Dpro-NH2] (Ac-[Nle]D[Hyp][d2Nal]RWPK[dV][dP]-NH2; lactam 2-8), for which, at human MC3R, the Emax stood at 50.1%, the half-inhibitory concentration (IC50) was > 10 µM, the “Hill Coefficient” value is recorded as 0.65 and the “Top (%)” value was 2741.58%. For the same compound, on human MC4R, the Emax is 21%, the “Hill Coefficient” value worked out at 0.92 and the “Top (%)” value is listed as 9354.39%.

For `CCCC[C@H](NC(C)=O)C(=O)N[C@H]1CC(=O)NCCCC[C@@H](C(=O)N2CCC[C@@H]2C(=O)N[C@@H](C(N)=O)C(C)C)NC(=O)[C@H](Cc2c[nH]c3ccccc23)NC(=O)[C@H](CCCNC(=N)N)NC(=O)[C@@H](Cc2ccc3ccccc3c2)NC(=O)[C@H](Cc2c[nH]cn2)NC(=O)[C@@H]2CCCN2C1=O` [Peptide D5, Ac-Nle-c(Asp-Pro-His-Dnal(2′)-Arg-Trp-Lys)-Dpro-Dval-NH2] (Ac-[Nle]DPH[d2Nal]RWK[dP][dV]-NH2; lactam 2-8), on human MC3R, the Emax was found to be 24.6%, the IC50 is > 10 µM, the “Hill Coefficient” value stood at 1.04 and the “Top (%)” value was 472.61%. Also, at human MC4R, the Emax stood at 41.5%, the “Hill Coefficient” value is on record as 0.67 and the “Top (%)” value is given as 2724.46%.

Turning to “Ac-Leu-c(Asp-Pro-Phe-Phe-Arg-Trp-Lys)-Val-Pro-NH2 (Ac-LDPFFRWKVP-NH2; lactam 2-8; SMILES CC(=O)N[C@@H](CC(C)C)C(=O)N[C@H]1CC(=O)NCCCC[C@@H](C(=O)N[C@H](C(=O)N2CCC[C@H]2C(N)=O)C(C)C)NC(=O)[C@H](Cc2c[nH]c3ccccc23)NC(=O)[C@H](CCCNC(=N)N)NC(=O)[C@H](Cc2ccccc2)NC(=O)[C@H](Cc2ccccc2)NC(=O)[C@@H]2CCCN2C1=O) [Peptide B2]”, in the experiment with human MC3R, the “Hill Coefficient” value amounted to 0.34 and the “Top (%)” value was determined as 20.30%. Moreover, in the experiment with human MC4R, the “Hill Coefficient” value came out at 0.69 and the “Top (%)” value is recorded as 729.66%.

Turning to IDPFFRWKVP [Peptide B8], in the experiment with human MC3R, the “Hill Coefficient” value was found to be 12.04 and the “Top (%)” value is on record as 4.40%. For the same compound, in the experiment with human MC4R, the “Hill Coefficient” value turned out to be 0.49 and the “Top (%)” value was determined as 20.03%.

For the compound IPWRWVP [Peptide C5], in the experiment with human MC3R, the “Hill Coefficient” value is listed as 13.82 and the “Top (%)” value is listed as −0.10%. Further, in the experiment with human MC4R, the “Hill Coefficient” value is recorded as 1.13 and the “Top (%)” value stood at 3.02%.

As to VPWRWVP [Peptide C6], in the experiment with human MC3R, the “Hill Coefficient” value turned out to be 1.00 and the “Top (%)” value was 100.00%. In the experiment with human MC4R, the “Hill Coefficient” value was found to be 2.07 and the “Top (%)” value is reported as 321.26%.

Consider `CCCC[C@@H]1NC(=O)[C@@H](NC(C)=O)CSSC[C@@H](C(N)=O)NC(=O)CNC(=O)[C@H](Cc2c[nH]c3ccccc23)NC(=O)[C@H](CCCNC(=N)N)NC(=O)[C@@H](Cc2ccc3ccccc3c2)NC(=O)[C@H](Cc2c[nH]cn2)NC(=O)[C@H](CCCNC(=N)N)NC1=O` [HS024(TFA), reference compound] (Ac-C[Nle]RH[d2Nal]RWGC-NH2; disulfide 1-9 (inferred); N-terminus and C-terminus assumed), for which, at human MC3R, the Emax was 102%, the “Hill Coefficient” value turned out to be 0.93 and the “Top (%)” value is 117.07%. Further, on human MC4R, the Emax was determined as 104%, the “Hill Coefficient” value is 0.61 and the “Top (%)” value is listed as 113.93%.

With IPFFRWVP [Peptide B5], the “Hill Coefficient” value is −0.76 in the experiment with human MC3R and 1.22 in the experiment with human MC4R. Also, the “Top (%)” value with human MC3R was 736.17%.

Take “Ac-Nle-c(Asp-Pro-Phe-Phe-Arg-Trp-Lys)-Dval-Dpro-NH2 (Ac-[Nle]DPFFRWK[dV][dP]-NH2; lactam 2-8; SMILES CCCC[C@H](NC(C)=O)C(=O)N[C@H]1CC(=O)NCCCC[C@@H](C(=O)N[C@@H](C(=O)N2CCC[C@@H]2C(N)=O)C(C)C)NC(=O)[C@H](Cc2c[nH]c3ccccc23)NC(=O)[C@H](CCCNC(=N)N)NC(=O)[C@H](Cc2ccccc2)NC(=O)[C@H](Cc2ccccc2)NC(=O)[C@@H]2CCCN2C1=O) [Peptide B1]”: the “Hill Coefficient” value with human MC3R came out at 1.05; in the experiment with human MC4R it was 7.57.

As for “Leu-c(Asp-Pro-Phe-Phe-Arg-Trp-Lys)-Val-Pro (LDPFFRWKVP; lactam 2-8) [Peptide B3]”, in the experiment with human MC3R, the “Hill Coefficient” value was 1.00 and the “Top (%)” value is 100.00%. In the experiment with human MC4R, the “Hill Coefficient” value was determined as 9.04.

In the case of “Ac-Nle-c(Asp-His-Dnal(2′)-Arg-Trp-Pro-Lys)-Dval-Dpro-NH2 (Ac-[Nle]DH[d2Nal]RWPK[dV][dP]-NH2; lactam 2-8; SMILES CCCC[C@H](NC(C)=O)C(=O)N[C@H]1CC(=O)NCCCC[C@@H](C(=O)N[C@@H](C(=O)N2CCC[C@@H]2C(N)=O)C(C)C)NC(=O)[C@@H]2CCCN2C(=O)[C@H](Cc2c[nH]c3ccccc23)NC(=O)[C@H](CCCNC(=N)N)NC(=O)[C@@H](Cc2ccc3ccccc3c2)NC(=O)[C@H](Cc2c[nH]cn2)NC1=O) [Peptide D2]”, in the experiment with human MC3R, the “Hill Coefficient” value worked out at 0.84 and the “Top (%)” value amounted to 177.39%. In the experiment with human MC4R, the “Hill Coefficient” value stood at 1.55 and the “Top (%)” value was 18.76%.

Take LDPWRWKVP [Peptide C7]: in the experiment with human MC3R, the “Hill Coefficient” value was −0.13 and the “Top (%)” value is recorded as 1.86%. For the same compound, in the experiment with human MC4R, the “Hill Coefficient” value amounted to 1.62 and the “Top (%)” value was found to be 4.61%.

Take `CCCC[C@H](NC(C)=O)C(=O)N[C@H]1CC(=O)NCCCC[C@@H](C(=O)N[C@@H](C(=O)N2CCC[C@@H]2C(N)=O)C(C)C)NC(=O)[C@H](Cc2c[nH]c3ccccc23)NC(=O)[C@H](CCCNC(=N)N)NC(=O)[C@@H](Cc2ccc3ccccc3c2)NC(=O)[C@H](Cc2c[nH]cn2)NC(=O)[C@@H]2CCCN2C1=O` [Peptide D1, Ac-Nle-c(Asp-Pro-His-Dnal(2′)-Arg-Trp-Lys)-Dval-Dpro-NH2] (Ac-[Nle]DPH[d2Nal]RWK[dV][dP]-NH2; lactam 2-8): on human MC3R, the Emax came to 74.5%, the IC50 is < 10 µM, the “Hill Coefficient” value is recorded as 0.73 and the “Top (%)” value is recorded as 4952.72%. At human MC4R, the Emax is 49.4%, the “Hill Coefficient” value stood at 0.55 and the “Top (%)” value turned out to be 2739.03%. Also, the IC50 on human MC4R (HEK293/MC4R/CRE-GFP, estimated from dose-response curve) is > 10 µM.

With “Ac-Nle-Pro-Dnal(2′)-Arg-Trp-Dval-Dpro-NH2 (Ac-[Nle]P[d2Nal]RW[dV][dP]-NH2; SMILES CCCC[C@H](NC(C)=O)C(=O)N1CCC[C@H]1C(=O)N[C@H](Cc1ccc2ccccc2c1)C(=O)N[C@@H](CCCNC(=N)N)C(=O)N[C@@H](Cc1c[nH]c2ccccc12)C(=O)N[C@@H](C(=O)N1CCC[C@@H]1C(N)=O)C(C)C) [Peptide A2]”, in the experiment with human MC3R, the “Hill Coefficient” value was determined as 0.82 and the “Top (%)” value was determined as 9.73%.
